Reference: patent US20160264649A1

What was measured:
Test in all cases: cell-based or functional assay
[1] = biological target: HIV-1 Env of pseudovirus isolate MGRM-G-025 (subtype G) (HIV-1)
[2] = biological target: HIV-1 Env of isolate 98CN009 (subtype CRF07_BC) (HIV-1)
[3] = biological target: HIV-1 Env of isolate MGRM-D-028 (subtype D) (HIV-1)
[4] = biological target: HIV-1 Env of pseudovirus isolate MGRM-G-013 (subtype G) (HIV-1)
[5] = biological target: HIV-1 Env of pseudovirus isolate MGRM-G-019 (subtype G) (HIV-1)
[6] = biological target: HIV-1 Env of isolate MGRM-F1-021 (subtype F) (HIV-1)
[7] = biological target: HIV-1 Env of isolate 92UG046 (subtype D) (HIV-1)
[8] = biological target: HIV-1 Env of isolate MGRM-D-003 (subtype D) (HIV-1)
[9] = biological target: HIV-1 Env of isolate MGRM-F1-023 (subtype F) (HIV-1)
[10] = biological target: HIV-1 Env of isolate MGRM-D-019 (subtype D) (HIV-1)
[11] = biological target: HIV-1 Env of isolate MGRM-D-014 (subtype D) (HIV-1)
[12] = biological target: HIV-1 Env of isolate MGRM-F1-006 (subtype F) (HIV-1)
[13] = biological target: HIV-1 Env of isolate MGRM-F1-008 (subtype F) (HIV-1)
[14] = biological target: HIV-1 Env of isolate MGRM-F1-017 (subtype F) (HIV-1)
[15] = biological target: HIV-1 Env of pseudovirus isolate MGRM-G-001 (subtype G) (HIV-1)
[16] = biological target: HIV-1 Env of isolate MGRM-D-001 (subtype D) (HIV-1)
[17] = biological target: HIV-1 Env of pseudovirus isolate MGRM-G-004 (subtype G) (HIV-1)
[18] = biological target: HIV-1 Env of pseudovirus isolate MGRM-G-028 (subtype G) (HIV-1)
[19] = biological target: HIV-1 Env of pseudovirus isolate MGRM-G-015 (subtype G) (HIV-1)
[20] = biological target: HIV-1 Env of isolate MGRM-F1-010 (subtype F) (HIV-1)
[21] = biological target: HIV-1 Env of isolate MGRM-F1-004 (subtype F) (HIV-1)
[22] = biological target: HIV-1 Env of isolate MGRM-F1-018 (subtype F) (HIV-1)
[23] = biological target: HIV-1 Env of isolate 92UG114 (subtype D) (HIV-1)
[24] = biological target: HIV-1 Env of isolate MGRM-F1-014 (subtype F) (HIV-1)
[25] = biological target: HIV-1 Env of pseudovirus isolate MGRM-G-024 (subtype G) (HIV-1)
[26] = biological target: HIV-1 Env of isolate MGRM-D-020 (subtype D) (HIV-1)
[27] = biological target: HIV-1 Env of isolate MGRM-D-022 (subtype D) (HIV-1)
[28] = biological target: HIV-1 Env of isolate MGRM-D-004 (subtype D) (HIV-1)
[29] = biological target: HIV-1 Env of pseudovirus isolate MGRM-G-027 (subtype G) (HIV-1)
[30] = biological target: HIV-1 Env of isolate MGRM-F1-012 (subtype F) (HIV-1)
[31] = biological target: HIV-1 Env of isolate MGRM-D-002 (subtype D) (HIV-1)
[32] = biological target: HIV-1 Env of isolate MGRM-D-013 (subtype D) (HIV-1)
[33] = biological target: HIV-1 Env of isolate MGRM-D-029 (subtype D) (HIV-1)
[34] = biological target: HIV-1 Env of pseudovirus isolate MGRM-G-006 (subtype G) (HIV-1)
[35] = biological target: HIV-1 Env of pseudovirus isolate MGRM-G-014 (subtype G) (HIV-1)
[36] = biological target: HIV-1 Env of isolate MGRM-D-012 (subtype D) (HIV-1)
[37] = biological target: HIV-1 Env of pseudovirus isolate MGRM-G-011 (subtype G) (HIV-1)
[38] = biological target: HIV-1 Env of pseudovirus isolate MGRM-G-009 (subtype G) (HIV-1)
[39] = biological target: envelope of aMLV pseudovirus (negative control)
[40] = biological target: HIV-1 Env of pseudovirus isolate MGRM-G-017 (subtype G) (HIV-1)
[41] = biological target: HIV-1 Env of isolate 98CN006 (subtype CRF08_BC) (HIV-1)
[42] = biological target: HIV-1 Env of pseudovirus isolate MGRM-G-016 (subtype G) (HIV-1)
[43] = biological target: HIV-1 Env of isolate 92UG005 (subtype D) (HIV-1)
[44] = biological target: HIV-1 Env of isolate MGRM-F1-016 (subtype F) (HIV-1)
[45] = biological target: HIV-1 Env of isolate MGRM-D-011 (subtype D) (HIV-1)
[46] = biological target: HIV-1 Env of isolate MGRM-D-005 (subtype D) (HIV-1)
[47] = biological target: HIV-1 Env of isolate 92UG024 (subtype D) (HIV-1)
[48] = biological target: HIV-1 Env of isolate MGRM-D-026 (subtype D) (HIV-1)
[49] = biological target: HIV-1 Env of isolate MGRM-D-021 (subtype D) (HIV-1)
[50] = biological target: HIV-1 Env of isolate MGRM-D-016 (subtype D) (HIV-1)
[51] = biological target: HIV-1 Env of isolate MGRM-F1-015 (subtype F) (HIV-1)
[52] = biological target: HIV-1 Env of isolate MGRM-D-008 (subtype D) (HIV-1)
[53] = biological target: HIV-1 Env of isolate MGRM-D-018 (subtype D) (HIV-1)
[54] = biological target: HIV-1 Env of isolate MGRM-D-024 (subtype D) (HIV-1)
[55] = biological target: HIV-1 Env of isolate MGRM-F1-020 (subtype F) (HIV-1)
[56] = biological target: HIV-1 Env of isolate MGRM-F1-013 (subtype F) (HIV-1)
[57] = biological target: HIV-1 Env of isolate MGRM-F1-022 (subtype F) (HIV-1)
[58] = biological target: HIV-1 Env of isolate 92UG001 (subtype D) (HIV-1)

B1: PGT-123 (antibody, V domains shown)
VH: QLHLQESGPGLVKPPETLSLTCSVSGASINDAYWSWIRQSPGKRPEWVGYVHHSGDTNYNPSLKRRVTFSLDTAKNEVSLKLVDLTAADSATYFCARALHGKRIYGIVALGELFTYFYMDVWGKGTAVTVSS
VL: SSMSVSPGETAKISCGKESIGSRAVQWYQQKPGQPPSLIIYNNQDRPAGVPERFSASPDFRPGTTATLTITNVDAEDEADYYCHIYDARGGTNWVFDRGTTLTVL
IC50 [1]: 0.046 µg/mL | IC50 (neutralization) [2]: 0.007 µg/mL | IC50 (neutralization) [3]: 0.132 µg/mL | IC50 [4]: 3.97 µg/mL | IC50 [5]: 0.008 µg/mL | IC50 (neutralization) [6]: 0.307 µg/mL | IC50 (neutralization) [7]: > 50 µg/mL | IC50 (neutralization) [8]: 3.74 µg/mL | IC50 (neutralization) [9]: 0.053 µg/mL | IC50 (neutralization) [10]: > 50 µg/mL | IC50 (neutralization) [11]: 0.009 µg/mL | IC50 (neutralization) [12]: 6.89 µg/mL | IC50 (neutralization) [13]: > 50 µg/mL | IC50 (neutralization) [14]: > 50 µg/mL | IC50 [15]: 0.009 µg/mL | IC50 (neutralization) [16]: 0.147 µg/mL | IC50 [17]: 0.181 µg/mL | IC50 [18]: 0.008 µg/mL | IC50 [19]: > 50 µg/mL | IC50 (neutralization) [20]: 0.016 µg/mL | IC50 (neutralization) [21]: 1.78 µg/mL | IC50 (neutralization) [22]: 0.054 µg/mL | IC50 (neutralization) [23]: 0.005 µg/mL | IC50 (neutralization) [24]: 0.111 µg/mL | IC50 [25]: 0.032 µg/mL | IC50 (neutralization) [26]: 0.018 µg/mL | IC50 (neutralization) [27]: > 50 µg/mL | IC50 (neutralization) [28]: > 50 µg/mL | IC50 [29]: 0.182 µg/mL | IC50 (neutralization) [30]: 22.2 µg/mL | IC50 (neutralization) [31]: 0.012 µg/mL | IC50 (neutralization) [32]: > 50 µg/mL | IC50 (neutralization) [33]: > 50 µg/mL | IC50 [34]: > 50 µg/mL | IC50 [35]: 0.005 µg/mL | IC50 (neutralization) [36]: > 50 µg/mL | IC50 [37]: 14.9 µg/mL | IC50 [38]: 33.5 µg/mL | IC50 [39]: > 50 µg/mL | IC50 [40]: 0.026 µg/mL | IC50 (neutralization) [41]: 0.008 µg/mL | IC50 [42]: > 50 µg/mL | IC50 (neutralization) [43]: 9.79 µg/mL | IC50 (neutralization) [44]: 4.95 µg/mL | IC50 (neutralization) [45]: 0.012 µg/mL | IC50 (neutralization) [46]: > 50 µg/mL | IC50 (neutralization) [47]: > 50 µg/mL | IC50 (neutralization) [48]: > 50 µg/mL | IC50 (neutralization) [49]: 11.1 µg/mL | IC50 (neutralization) [50]: > 50 µg/mL | IC50 (neutralization) [51]: > 50 µg/mL | IC50 (neutralization) [52]: > 50 µg/mL | IC50 (neutralization) [53]: 0.007 µg/mL | IC50 (neutralization) [54]: 0.023 µg/mL | IC50 (neutralization) [55]: 0.051 µg/mL | IC50 (neutralization) [56]: 0.08 µg/mL | IC50 (neutralization) [57]: 0.075 µg/mL | IC50 (neutralization) [58]: > 50 µg/mL
